# How the values were obtained:
# CCL4 (Homo sapiens) = CCL4 (Homo sapiens) (UniProt P13236); details: cited from earlier work
# CCL18 (Homo sapiens) = CCL18 (Homo sapiens) (UniProt P55774); details: cited from earlier work
# CCL3 (Homo sapiens) = CCL3 (Homo sapiens) (UniProt P10147); details: cited from earlier work
# [1] = molecular target: non-glycosylated Evasin-1 (Rhipicephalus sanguineus) (UniProt P0C8E7); assay: crystal structure; complex of non-glycosylated Evasin-1 and ΔAla1-CCL3 (A10T), formed overnight at 4°C at a molar ratio of 1:2.5, captured on Ni-NTA; crystals in 24% PEG 3350, 0.2 M ammonium sulphate, 0.1 M HEPES pH 8.1; 1.9 Å
# non-glycosylated Evasin-1 (Rhipicephalus sanguineus), sequence (P0C8E7 21-114): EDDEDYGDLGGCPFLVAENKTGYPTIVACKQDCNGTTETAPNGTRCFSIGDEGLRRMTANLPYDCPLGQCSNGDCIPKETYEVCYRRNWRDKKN
# Evasin-1, sequence (P0C8E7 21-114): as above
# CCL4 (Homo sapiens), sequence (P13236 24-92): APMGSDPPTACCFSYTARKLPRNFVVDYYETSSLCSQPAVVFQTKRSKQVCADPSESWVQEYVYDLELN
# CCL18 (Homo sapiens), sequence (P55774 24-89): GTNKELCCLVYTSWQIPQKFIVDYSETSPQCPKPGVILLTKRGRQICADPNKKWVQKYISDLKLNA
# CCL3 (Homo sapiens), sequence (P10147 24-92): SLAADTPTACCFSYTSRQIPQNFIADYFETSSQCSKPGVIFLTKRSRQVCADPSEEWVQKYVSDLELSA
Substance,Kd (CCL4 (Homo sapiens)) [nM],Kd (CCL18 (Homo sapiens)) [nM],Kd (CCL3 (Homo sapiens)) [nM],stoichiometry N [1]
Evasin-1 (from UniProt P0C8E7),0.81,3.2,0.16,
ΔAla1-CCL3 (A10T) (ligand),,,,1
